The assay concerns the target T1, 6xHIS-SH3_(Boi1) (S. cerevisiae, UniProt P38041 13-77).
T1 sequence: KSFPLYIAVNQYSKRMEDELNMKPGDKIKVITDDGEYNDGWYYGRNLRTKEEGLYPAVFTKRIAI
Briefly: SPR. For orientation: SPR reads the build-up and loss of mass on a sensor chip optically.

AGT = not defined here

The Kd is a measure of binding affinity in units of concentration. A high value points to weaker binding.

As to 6xHis-SVSSKGPSNSLNLSTADLSLN-{AGT} (reading uncertain; also: AGT tag covalently labeled with SNAP-Biotin) [6xHis-Exo84_(121-141)-AGT], the Kd is approximately 1000 nM.

For the origin of these results see article doi:10.1101/144360 (bioRxiv, 2017).
